Data taken from the supplement of paper PMC10567573.
± gives the standard deviation.

Assay: protein stability index of a GFP-peptide fusion (GPS, HEK-293T) (PSI 1-6); higher = more stable
[1] = treatment: DMSO, c terminus: a fixed tail appended
[2] = treatment: MLN4924 1 uM, 8 h, c terminus: a fixed tail appended
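Note: 24-mer peptide tiles fused after GFP, lentivirally expressed, FACS-sorted into six equal bins by GFP/DsRed ratio, decoded by Illumina sequencing, PSI is the read-weighted mean bin number.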

Sequence | protein stability index [1] | protein stability index [2] | protein stability index (treatment: DMSO, c terminus: native) | protein stability index (treatment: MLN4924 1 uM, 8 h, c terminus: native)
MGGIMAPKDIMTNTHAKSILNSMN [KLHL12] | 2.83 ± 0.092 | 3.27 ± 0.47 | – | –
MLALRGQTGGDVNVEMDAAPGVDL [KRT16] | 4.25 ± 0.17 | 4.78 ± 0.17 | – | –
MLSHDNITWIAGAVTKDFKLTDKH [ACSBG2] | 2.66 ± 0.42 | 2.86 ± 0.3 | – | –
MLWEHNSTIVVMLTKLREMGREKC [PTPRD] | 2.33 ± 0.55 | 2.15 ± 0.2 | – | –
MMRREDEEEEGTMMKAKGDLEMKE [ZBED2] | 5.56 ± 0.25 | 5.64 ± 0.29 | – | –
MNVDFDAPLGYKEPERQVQHEEST [UFD1] | 5.28 ± 0.062 | 5.31 ± 0.29 | – | –
MPPVSYDVQLLHSWNNNDRSLNVF [SPSB1] | 2.46 ± 0.15 | 2.26 ± 0.27 | – | –
MPSKLFAGLVHVKQCIVAHPVNPP [CRYL1] | 2.37 ± 0.17 | 2.46 ± 0.35 | – | –
MPSTPGFVGYNPYSHLAYNNYRLG [SMARCE1] | 2.27 ± 0.099 | 2.42 ± 0.23 | – | –
MQQFLQKALEILRKDFSELRSAGV [FAM50A] | 3.67 ± 0.41 | 3.03 ± 0.25 | – | –
MRLPLPPAQVHSSLSAGEKPGFLA [RASAL3] | 3.4 ± 0.085 | 3.35 ± 0.14 | – | –
MRPPMPPHGQYGGHHQGMPGYLPG [ZNF207] | 3.23 ± 0.3 | 3.29 ± 0.18 | – | –
MSKLGKFFKGGGSSKSRAAPSPQE [CHMP4C] | 3.56 ± 0.33 | 3.76 ± 0.38 | – | –
MSLLPDKKTVHYYAELGQCSVFPA [PLK2] | 2.41 ± 0.13 | 2.44 ± 0.35 | – | –
MSNHTRERVTVAKLTLENFYSNLI [STK38L] | 2.21 ± 0.16 | 2.31 ± 0.31 | – | –
MSVDPACPQSLPCFEASDCKESSP [NANOGP8] | 5.44 ± 0.23 | 5.41 ± 0.33 | – | –
MSWEKEEGKSRHVDFQCVKSKSIT [BTBD10] | 4.48 ± 0.085 | 4.42 ± 0.2 | – | –
MTQQGAALQNYNNELVKCIEELCQ [SSNA1] | 3.33 ± 0.4 | 3.4 ± 0.31 | – | –
MTSISLPSVMDPGAFETVLASAYT [ZBTB22] | 2.57 ± 0.23 | 2.72 ± 0.26 | – | –
MTWSPLACGIVSGKYDSGIPPYSR [KCNAB2] | 3.19 ± 0.54 | 2.92 ± 0.3 | – | –
MVGGNAVPQRTAGGDVPERELYIR [MYORG] | 3.9 ± 0.28 | 4.29 ± 0.16 | – | –
MVQLDSIEDLEVTCTWKLPTLAKF [PRAME] | 2.6 ± 0.45 | 2.75 ± 0.64 | – | –

Sequence | protein stability index [1] | protein stability index [2] | protein stability index (treatment: DMSO, c terminus: native) | protein stability index (treatment: MLN4924 1 uM, 8 h, c terminus: native)
MWRDLTDEEKQEYLNEYEAEKIEY [SMARCE1] | 4.26 ± 0.4 | 4.35 ± 0.21 | – | –
NAKAHCGATALHFAAEAGHIDIVK [FEM1B] | 2.59 ± 0.36 | 2.62 ± 0.17 | – | –
NAYKDLAWKHGNIHLSAPCIYSEV [PCMTD1] | 2.31 ± 0.17 | 2.15 ± 0.31 | – | –
NDKFSFHEVKDNYIPVIKRALNSV [RHOBTB3] | 2.19 ± 0.49 | 2.41 ± 0.24 | – | –
NDMRDTPLHRAAFTGRKICSQGS [OSBPL1A] | – | – | 2.87 ± 0.22 | 2.73 ± 0.39
NDRMSTRHDGYATNDGNHPSCQET [RBMY1A1] | 5.17 ± 0.19 | 5.22 ± 0.1 | – | –
NETADLGLDIGAQGEPLGYRQDDP [CTNNB1] | 5.41 ± 0.2 | 5.46 ± 0.23 | – | –
NFDDILNVCDDYDVTCNEFFFDRN [KCNG1] | 3.4 ± 0.28 | 3.27 ± 0.49 | – | –
NHEEEVNTLRSQLGDRLNVEVDTA [KRT34] | 5.4 ± 0.33 | 5.441 ± 0.028 | – | –
NIHQLQNRLSELEVANKDLTERKY [SASS6] | 3.42 ± 0.15 | 3.62 ± 0.34 | – | –
NIYETGDVCISILHPPVDDPQSGE [CDC34] | 4.52 ± 0.11 | 4.51 ± 0.29 | – | –
NLISPVRNGAVRRFGQTIQSFTLR [NET1] | 2.65 ± 0.32 | 2.7 ± 0.14 | – | –
NLLNMAYGVKSPLSLIARFSPIAI [ELAVL3] | 2.83 ± 0.58 | 2.81 ± 0.65 | – | –
NLTIRAGALTGKENNMLQPETHIF [DMRTC1] | 2.95 ± 0.21 | 3.17 ± 0.39 | – | –
NNSNLQRMGSSESTDSGFCLDSPG [CDC25A] | 4.43 ± 0.92 | 4.8 ± 0.3 | – | –
NPMDMGTIKKRLENNYYWSASECM [BRD3] | 2.34 ± 0.31 | 2.65 ± 0.082 | – | –
NREVATNSELVQSGKSEISELRRT [KRT17] | 5 ± 0.22 | 5.09 ± 0.24 | – | –
NRMHESMKLFDSICNNKWFTDTSI [GNAI1] | 2.38 ± 0.27 | 2.33 ± 0.45 | – | –
NRPSFDAILYYYQSGGRLRRPVNV [KCNA1] | 2.24 ± 0.085 | 2.37 ± 0.14 | – | –
NSAEACQYVITHAKVNILLVENDQ [ACSBG2] | 2.18 ± 0.52 | 2.62 ± 0.25 | – | –
NSTSYSNYYRTWNVVVHDWLYYYA [SOAT1] | 2.63 ± 0.52 | 2.56 ± 0.55 | – | –
NSVISVCSSSNLAGNDDSFGSLPS [DLC1] | 4.18 ± 0.21 | 4.23 ± 0.24 | – | –

Sequence | protein stability index [1] | protein stability index [2] | protein stability index (treatment: DMSO, c terminus: native) | protein stability index (treatment: MLN4924 1 uM, 8 h, c terminus: native)
NTEVVQVAAGRTQKAGVTRSGRLI [NEK8] | 4.32 ± 0.21 | 4.4 ± 0.16 | – | –
NVKLQELINHKKAEDTEKKDEPSK [CEP70] | 5.35 ± 0.16 | 5.2 ± 0.21 | – | –
PALCFAAAIFSLFFVPLSYLLMVT [TMEM175] | 3.03 ± 0.093 | 3.31 ± 0.21 | – | –
PATGGAIPSWQIRTVKLIRYVSNW [PKD2L1] | 2.09 ± 0.24 | 2.24 ± 0.39 | – | –
PCAGSTSLSHSPGCSSTQGNGRPG [LCOR] | 3.74 ± 0.42 | 4.16 ± 0.33 | – | –
PCLDQTRVKLTKRSGHTQTDYINA [PTPN9] | 3.99 ± 0.59 | 3.91 ± 0.1 | – | –
PCPSTTCCRACSVSFSTGAGGWSN [BET1L] | 2.27 ± 0.91 | 2.02 ± 0.47 | – | –
PDGGRADEWACELRLFGRVLERAA [P3H4] | 2.46 ± 0.3 | 2.62 ± 0.38 | – | –
PDKECRRCMQCDAKFDFLTRKHHC [ZFYVE21] | 3.91 ± 0.078 | 4 ± 0.27 | – | –
PDKEEQLPFGPFNGTAWTYHSQDE [PKD2L1] | 4.67 ± 0.1 | 4.76 ± 0.38 | – | –
PDLVKGPWTKEEDQKVIELVKKYG [MYBL2] | 3.86 ± 0.22 | 3.99 ± 0.21 | – | –
PDQEAEPQEAAGAQGRAGAPVPEP [EPB41L3] | 5.69 ± 0.21 | 5.69 ± 0.23 | – | –
PDSFYELKSQPLPLRSSLPISLQA [TFE3] | 3.14 ± 0.15 | 3.26 ± 0.29 | – | –
PEQALDTPGDCPPGRRDEDAGEGI [TMEM175] | 5.53 ± 0.23 | 5.43 ± 0.17 | – | –
PEQQVDMHDMLLEELAPVGTAHIP [ZNF449] | 4.68 ± 0.28 | 4.8 ± 0.085 | – | –
PERSYVFNGDFVDRGKDSVEILMI [PPEF2] | 2 ± 0.38 | 2.23 ± 0.31 | – | –
PGDPKWLDVIERDLHRQFPFHEMF [TBC1D10A] | 2.46 ± 0.31 | 2.57 ± 0.41 | – | –
PGLPGSTGNPKSEEPEVPDQEGLQ [SPNS1] | 5.39 ± 0.75 | 4.88 ± 0.22 | – | –
PGPQDPEESASRQRFGEALQDQEK [ELOA2] | 5.53 ± 0.29 | 5.68 ± 0.16 | – | –
PGPQGSAGQRGEPGPKGDPGEKSH [EMID1] | 5.62 ± 0.4 | 5.49 ± 0.26 | – | –
PGQPLPGASVRGLHPVQKVILNYP [TRAF3IP2] | 3.55 ± 0.36 | 3.45 ± 0.52 | – | –
